The record followed here is patent US20220228157A1, “GENE EDITING IN DIVERSE BACTERIA” (priority 2019, published 2022).

Substitutions are numbered along the chain they refer to. Names may count otherwise.

B1: LlMutL.E33K: L. lactis MutL carrying the equivalent dominant negative mutation, SEQ ID NO: 513 (protein)
chain: MGKIIELNEALANQIAAGEVVERPASVVKELVKNSIDAGSSKIIINVEEAGLRLIEVIDNGLGLEKEDVALALRRHATSKIKDSADLFRIRTLGFRGEALPSIASVSQMTIETSNAQEEAGTKLIAKGGTIETLEPLAKRLGTKISVANLFYNTPARLKYIKSLQAELSHITDIINRLSLAHPEISFTLVNEGKEFLKTAGNGDLRQVIAAIYGIGTAKKMREINGSDLDFELTGYVSLPELTRANRNYITILINGRFIKNFLLNRAILEGYGNRLMVGRFPFAVLSIKIDPKLADVNVHPTKQEVRLSKERELMTLISKAIDETLSEGVLIPEALENLQGRAKEKGTVSVQTELPLQNNPLYYDNVRQDFFVREEAIFEINKNDNSDSLTEQNSTDYTVNQPETGSVSEKITDRTVESSNEFTDRTPKNSVSNFGVDFDNIEKLSQQSTFPQLEYLAQLHATYLLCQSKEGLYLVDQHAAQERIKYEYWKDKIGEVSMEQQILLAPYLFTLPKNDFIVLAEKKDLLHEAGVFLEEYGENQFILREHPIWLKETEIEKSINEMIDIILSSKEFSLKKYRHDLAAMVACKSSIKANHPLDAESARALLRELSTCKNPYSCAHGRPTIVHFSGDDIQKMFRRIQETHRSKAASWKDFE
B2: MutL.E32K from E. coli: dominant negative mismatch repair protein, SEQ ID NO: 515 (protein)
chain: MPIQVLPPQLANQIAAGEVVERPASVVKELVKNSLDAGATRIDIDIERGGAKLIRIRDNGCGIKKDELALALARHATSKIASLDDLEAIISLGFRGEALASISSVSRLTLTSRTAEQQEAWQAYAEGRDMNVTVKPAAHPVGTTLEVLDLFYNTPARRKFLRTEKTEFNHIDEIIRRIALARFDVTINLSHNGKIVRQYRAVPEGGQKERRLGAICGTAFLEQALAIEWQHGDLTLRGWVADPNHTTPALAEIQYCYVNGRMMRDRLINHAIRQACEDKLGADQQPAFVLYLEIDPHQVDVNVHPAKHEVRFHQSRLVHDFIYQGVLSVLQQQLETPLPLDDEPQPAPRSIPENRVAAGRNHFAEPAAREPVAPRYTPAPASGSRPAAPWPNAQPGYQKQQGEVYRQLLQTPAPMQKLKAPEPQEPALAANSQSFGRVLTIVHSDCALLERDGNISLLSLPVAERWLRQAQLTPGEAPVCAQPLLIPLRLKVSAEEKSALEKAQSALAELGIDFQSDAQHVTIRAVPLPLRQQNLQILIPELIGYLAKQSVFEPGNIAQWIARNLMSEHAQWSMAQAITLLADVERLCPQLVKTPPGGLLQSVDLHPAIKALKDE
B3: L1SSB C8:EcSSB (protein)
chain: MINNVVLVGRITRDPELRYTPQNQAVATFSLAVNRQFKNANGEREADFINCVIWRQQAENLANWAKKGALIGVTGRIQTRNYENQQGQRVYVTEVVADSFQMLESRSARDGMGGGASAGSYSAPSQSTNNTPRPQTNNNSATPNFGRDADPFGSSPMEMEDFDDDIPF
B4: L1SSB C7:EcSSB (protein)
chain: MINNVVLVGRITRDPELRYTPQNQAVATFSLAVNRQFKNANGEREADFINCVIWRQQAENLANWAKKGALIGVTGRIQTRNYENQQGQRVYVTEVVADSFQMLESRSARDGMGGGASAGSYSAPSQSTNNTPRPQTNNNSATPNFGRDADPFGSSPMEIMEIFDDDIPF
B5: L1SSB C8:PaSSB (protein)
chain: B3 chain with D161S
B6: L1SSB C8:MsSSB (protein)
chain: B3 chain with D161G, F162A, D165E, I166P
B7: L1SSB C7:PaSSB (protein)
chain: B4 chain
B8: L1SSB C7:MsSSB (protein)
chain: B4 chain with F163A, D166E, I167P
B9: SR033: SSAP candidate (protein)
chain: MADYEEQMLALQKPLQPDRVVWRVQQSGFSKQGKPWAMVLAYMDNRAVQERFDEVFGIAGWKNEFKTAPDGGTLCGISVKFGDEWVTKWDGAENTQVEAVKGGLSGSMKRAAVQWGVGRYLYDLPTSFAQTSLEKTDGWNKVFDKNSKKNFWWKNPQLPSWALPQNSKVQNTKADFTEEEIPNPPKLYVVGKDKKEFDEKKLQAVVNKMAIIAGKDYGASVDEQNDWLKMPLDEAYNDIEKFVDIKKEEQND
modifications: Lactococcus phage bIL286,Lactococcus lactis subsp lactis (strain IL1403) (Streptococcuslactis)
notes: SSAP candidate
B10: PF003: SSAP candidate (protein)
chain: MAENEKQALLQEENKSENVVSTVKRTALATNPFSDTDQFNNIFKMAQLISQSDMIPATYKGKPMNCVIALEQANRMGVSPLMVMQNLYVVKGVPSWSGQGCMMIIQGCGKFRDVDYVYSGEKGTDSRSCKVVATRISDGKRIEGTEITMQMVKSEGWISNTKWKNMPEQMLGYRAATFFARMYCPNELNGFATEGEAEDMNHKPQRIEAINVLGDTAHE
modifications: Clostridium sp FS41
notes: SSAP candidate
B11: SR041: SSAP candidate (protein)
chain: MAKIKLTNVRIAFINNLRTPAEFEAGDGKFRYSATFLVEKGSANDKAIEAAIKSVAVEGWAKKADAMLESFRSNSNKFCYQNGDLKDFDGFEGNMYIAAHRKRDDGRPLLLDNVADPETGKPARLVDANGEWLAGKEGRIYAGCYVNATIDIYAQTKTNPGIRCGLMGVQYHGPGDSFSGASRANEDDFEATAPETEDELD
modifications: Burkholderia phage BcepC6B
notes: SSAP candidate
B12: SR024: SSAP candidate (protein)
chain: MAIDNQSTKVITGKVRLSYTHVFEPQENDSGDMKYSTAILIPKSDKETLRKIKAAVDAAKELGKSKWGGKIPANCKTPLRDGDEERPDDEAYAGHYFLNASSKNKPGVAKPIGKDGNGKTKFQEITDSTEVYSGCYAKVSLNFYPFDAKGNRGVAAGLNNIVKVQDGDFLGGRSSVNDDFANEDFDDIVDISDDDDFLN
modifications: Paenibacillus lactis 154
notes: SSAP candidate
B13: SR081: SSAP candidate (protein)
chain: MSKEFYARLAAIQENLNAPKNQYNSFGKYKYRSCEDILEGVKPLLNGLFLSISDEVVLIGDRYYVKATATITDGENSHTATALAREEESKKGMDSAQVTGATSSYARKYCLNGLFGIDDAKDADTDEHKHQQNAAAKQSNPSPTPEQVLKAFTDAAMQKNTVEELKQAFAKAWKMLEGTPEQHKAQDVYNIRRDELEGAAA
modifications: Bacteriophage HK022
notes: SSAP candidate

In the first test the test system is L. lactis. The test can be described thus: Allelic recombination frequency, selective vs non-selective plates. Type of test: cell-based, Lactococcus lactis. To be noted: co-expressed with PapRecT and PaSSB. The procedure: Four variants known to enable high genome editing efficiency were selected (Redβ and PapRecT in E. coli, LrpRecT in L. lactis, and MspRecT in M. smegmatis), and tested codon optimized versions of all four in both E. coli (gram-negative), and L. lactis (gram-positive). Genome editing efficiency was measured by introducing oligos encoding known antibiotic resistance mutations, and compared the antibiotic resistant cell counts to the total number of viable cells in the population (FIGS. 17E-17F). […] In L. lactis, LrpRecT was the only functional homolog, and improved oligo incorporation 7,700-fold, while the three other RecT variants were nearly non-functional, improving oligo incorporation less than 7-fold (FIG. 17H). No RecT protein functioned well both in E. coli and L. lactis.
A single colony of L. lactis was grown overnight to saturation. 500 μL of dense culture was inoculated into 5 mL of fresh media, supplemented with 500 mM sucrose and 2.5% (w/v) glycine, and grown for 3 hours. To induce gene expression of the pJP005 vector for recombineering experiments, the cells were grown for an additional 30 min after adding 1 ng/mL freshly diluted nisin, unless stated otherwise. For the optimized condition (FIG. 20B), 10 ng/mL nisin was used. Cells were pelleted at 4° C. by centrifugation at 5,000×g for 5 minutes and washed twice with 2 mL of ice-cold electroporation buffer (500 mM sucrose containing 10% (w/v) glycerol) by centrifugation at 13,200×g for 2.5 minutes. Cells were resuspended in 80 μL ice-cold electroporation buffer containing DNA and transferred to a pre-chilled 0.1 cm electroporation cuvette.
Electrocompetent cells were electroporated with 90-mer oligos at: 1 uM for E. coli, 50 μg for L. lactis, and 10 uM for C. crescentus. 70-mer oligos were used at 1 μg for M. smegmatis. All oligos were obtained from IDT and can be found under “Oligonucleotides for genome editing” in materials and methods. For dsDNA experiments L. lactis was electroporated with 1.5 μg purified linear dsDNA. Cells were electroporated using a Bio-Rad gene pulser set to 25 μF, 200 S2, and 1.8 kV for E. coli, 2.0 kV for L. lactis, and 1.5 kV for C. crescentus and to 1000Ω and 2.5 kV for M. smegmatis. Immediately after electroporation, cells were recovered in fresh media for 3 hours for E. coli, 1 hour for L. lactis, overnight for M. smegmatis and overnight for C. crescentus. L. lactis recovery media was supplemented with MgCl2 and CaCl2) at a concentration of 20 mM and 2 mM, respectively. E. coli recovery media was supplemented with carbenicillin. M. smegmatis recovery media was supplemented with hygromycin. C. crescentus recovery media was supplemented with 0.3% xylose and kanamycin. After recovery, the cells were serial diluted and plated on non-selective vs. selective agar plates to obtain approximately 50-500 CFU/plate. Colonies were counted using a custom script in Fiji, and allelic recombination frequency was calculated by dividing the number of colonies on selective plates, with the number of colonies on non-selective plates.
Consider B1, for which the “Function of dominant negative MutL” value is “enabled the efficient introduction of 1 bp pair changes”.
Take B2: the “Function of dominant negative MutL” value is “nonfunctional”.

Staying with this test, now noted: co-expressed with Redβ.
As to B3, the “Genome editing efficiency lower than Redβ with EcSSB” value was at most 2.6 fold.
Still for that read-out and setting: then B4, with at most 5.9 fold.

Still in this test, the particulars now being: co-expressed with the RecT.
Consider B5, for which the “Editing efficiency with chimeric SSB” value is “completely recovered”.
Same read-out and setting: then B6, with “completely recovered”; and B7, with “completely recovered”; and B8, with “completely recovered”.

The subject of a further test is Staphylococcus aureus. As to the kind of experiment: SSAP candidate enrichment. In kind it is cell-based.
Conditions: not given
The procedure: The editing efficiency of SSAP candidates was also tested in Agrobacterium tumefaciens and in Staphylococcus aureus using the methods described above.
Take B9: the “Editing efficiency (enrichment) relative to other SSAP candidates” value is recorded as “increase in editing efficiency”.
On the same count and under the same terms, the same measure for B10: “increase in editing efficiency”; for B11: “increase in editing efficiency”; for B12: “increase in editing efficiency”.
Same read-out and setting: then B13, with “increase in editing efficiency”.
